{"source": "paper PMC7581431", "parents": {"B1": {"name": "Nkd1-BirA* [murine] / VANGL1 [human (endogenous in Flp-In-T-REx-293)] (parent)", "chain 1": "MGKLHSKPAAVCKRRESPEGDSFAVSAAWARKGIEEWIGRQRCPGSVSGPRQLRLAGTVGRGTRELVGDTSREALGEEDEDDFPLEVALPPEKIDSLGSGDEKRMERLSEPGQASKKQLKFEELQCDVSVEEDSRQEWTFTLYDFDNNGKVTREDITSLLHTIYEVVDSSVNHSPTSSKTLRVKLTVAPDGSQSKRSVLFNHTDLQSTRPRADTKPAEELRGWEKKQRAPLRFQGDSHLEQPDCYHHCVDENIERRNHYLDLAGIENYTSQFGPGSPSVAQKSELPPRISNPTRSRSHEPEAAHIPHRRPQGVDPGSFHLLDTPFAKASELQQRLRGTQDGSKHFVRSPKAQGKNMGMGHGARGARSKPPLVPTTHTVSPSAHLATSPALLPTLAPLGHKKHKHRAKESQASCRGLQGPLAAGGSTVMGREQVRELPAVVVYESQAGQAVQRHEHHHHHEHHHHYHHFYQP", "chain 2": "MDTESTYSGYSYYSSHSKKSHRQGERTRERHKSPRNKDGRGSEKSVTIQPPTGEPLLGNDSTRTEEVQDDNWGETTTAITGTSEHSISQEDIARISKDMEDSVGLDCKRYLGLTVASFLGLLVFLTPIAFILLPPILWRDELEPCGTICEGLFISMAFKLLILLIGTWALFFRKRRADMPRVFVFRALLLVLIFLFVVSYWLFYGVRILDSRDRNYQGIVQYAVSLVDALLFIHYLAIVLLELRQLQPMFTLQVVRSTDGESRFYSLGHLSIQRAALVVLENYYKDFTIYNPNLLTASKFRAAKHMAGLKVYNVDGPSNNATGQSRAMIAAAARRRDSSHNELYYEEAEHERRVKKRKARLVVAVEEAFIHIQRLQAEEQQKAPGEVMDPREAAQAIFPSMARALQKYLRITRQQNYHSMESILQHLAFCITNGMTPKAFLERYLSAGPTLQYDKDRWLSTQWRLVSDEAVTNGLRDGIVFVLKCLDFSLVVNVKKIPFIILSEEFIDPKSHKFVLRLQSETSV"}, "B2": {"name": "Nkd1-BirA* [murine] / VANGL2 [human (endogenous in Flp-In-T-REx-293)] (parent)", "chain 1": "B1 chain 1", "chain 2": "MDTESQYSGYSYKSGHSRSSRKHRDRRDRHRSKSRDGGRGDKSVTIQAPGEPLLDNESTRGDERDDNWGETTTVVTGTSEHSISHDDLTRIAKDMEDSVPLDCSRHLGVAAGATLALLSFLTPLAFLLLPPLLWREELEPCGTACEGLFISVAFKLLILLLGSWALFFRRPKASLPRVFVLRALLMVLVFLLVVSYWLFYGVRILDARERSYQGVVQFAVSLVDALLFVHYLAVVLLELRQLQPQFTLKVVRSTDGASRFYNVGHLSIQRVAVWILEKYYHDFPVYNPALLNLPKSVLAKKVSGFKVYSLGEENSTNNSTGQSRAVIAAAARRRDNSHNEYYYEEAEHERRVRKRRARLVVAVEEAFTHIKRLQEEEQKNPREVMDPREAAQAIFASMARAMQKYLRTTKQQPYHTMESILQHLEFCITHDMTPKAFLERYLAAGPTIQYHKERWLAKQWTLVSEEPVTNGLKDGIVFLLKRQDFSLVVSTKKVPFFKLSEEFVDPKSHKFVMRLQSETSV"}, "B3": {"name": "Nkd1-BirA* [murine] / DVL1 [human (endogenous in Flp-In-T-REx-293)] (parent)", "chain 1": "B1 chain 1", "chain 2": "MAETKIIYHMDEEETPYLVKLPVAPERVTLADFKNVLSNRPVHAYKFFFKSMDQDFGVVKEEIFDDNAKLPCFNGRVVSWLVLAEGAHSDAGSQGTDSHTDLPPPLERTGGIGDSRPPSFHPNVASSRDGMDNETGTESMVSHRRERARRRNREEAARTNGHPRGDRRRDVGLPPDSASTALSSELESSSFVDSDEDGSTSRLSSSTEQSTSSRLIRKHKRRRRKQRLRQADRASSFSSITDSTMSLNIVTVTLNMERHHFLGISIVGQSNDRGDGGIYIGSIMKGGAVAADGRIEPGDMLLQVNDVNFENMSNDDAVRVLREIVSQTGPISLTVAKCWDPTPRSYFTVPRADPVRPIDPAAWLSHTAALTGALPRYGTSPCSSAVTRTSSSSLTSSVPGAPQLEEAPLTVKSDMSAVVRVMQLPDSGLEIRDRMWLKITIANAVIGADVVDWLYTHVEGFKERREARKYASSLLKHGFLRHTVNKITFSEQCYYVFGDLCSNLATLNLNSGSSGTSDQDTLAPLPHPAAPWPLGQGYPYQYPGPPPCFPPAYQDPGFSYGSGSTGSQQSEGSKSSGSTRSSRRAPGREKERRAAGAGGSGSESDHTAPSGVGSSWRERPAGQLSRGSSPRSQASATAPGLPPPHPTTKAYTVVGGPPGGPPVRELAAVPPELTGSRQSFQKAMGNPCEFFVDIM"}, "B4": {"name": "Nkd1-BirA* [murine] / DVL3 [human (endogenous in Flp-In-T-REx-293)] (parent)", "chain 1": "B1 chain 1", "chain 2": "MGETKIIYHLDGQETPYLVKLPLPAERVTLADFKGVLQRPSYKFFFKSMDDDFGVVKEEISDDNAKLPCFNGRVVSWLVSAEGSHPDPAPFCADNPSELPPPMERTGGIGDSRPPSFHPHAGGGSQENLDNDTETDSLVSAQRERPRRRDGPEHATRLNGTAKGERRREPGGYDSSSTLMSSELETTSFFDSDEDDSTSRFSSSTEQSSASRLMRRHKRRRRKQKVSRIERSSSFSSITDSTMSLNIITVTLNMEKYNFLGISIVGQSNERGDGGIYIGSIMKGGAVAADGRIEPGDMLLQVNEINFENMSNDDAVRVLREIVHKPGPITLTVAKCWDPSPRGCFTLPRSEPIRPIDPAAWVSHTAAMTGTFPAYGMSPSLSTITSTSSSITSSIPDTERLDDFHLSIHSDMAAIVKAMASPESGLEVRDRMWLKITIPNAFIGSDVVDWLYHNVEGFTDRREARKYASNLLKAGFIRHTVNKITFSEQCYYIFGDLCGNMANLSLHDHDGSSGASDQDTLAPLPHPGAAPWPMAFPYQYPPPPHPYNPHPGFPELGYSYGGGSASSQHSEGSRSSGSNRSGSDRRKEKDPKAGDSKSGGSGSESDHTTRSSLRGPRERAPSERSGPAASEHSHRSHHSLASSLRSHHTHPSYGPPGVPPLYGPPMLMMPPPPAAMGPPGAPPGRDLASVPPELTASRQSFRMAMGNPSEFFVDVM"}, "B5": {"name": "Nkd1-BirA* [murine] / NBR1 [human (endogenous in Flp-In-T-REx-293)] (parent)", "chain 1": "B1 chain 1", "chain 2": "MEPQVTLNVTFKNEIQSFLVSDPENTTWADIEAMVKVSFDLNTIQIKYLDEENEEVSINSQGEYEEALKMAVKQGNQLQMQVHEGHHVVDEAPPPVVGAKRLAARAGKKPLAHYSSLVRVLGSDMKTPEDPAVQSFPLVPCDTDQPQDKPPDWFTSYLETFREQVVNETVEKLEQKLHEKLVLQNPSLGSCPSEVSMPTSEETLFLPENQFSWHIACNNCQRRIVGVRYQCSLCPSYNICEDCEAGPYGHDTNHVLLKLRRPVVGSSEPFCHSKYSTPRLPAALEQVRLQKQVDKNFLKAEKQRLRAEKKQRKAEVKELKKQLKLHRKIHLWNSIHGLQSPKSPLGRPESLLQSNTLMLPLQPCTSVMPMLSAAFVDENLPDGTHLQPGTKFIKHWRMKNTGNVKWSADTKLKFMWGNLTLASTEKKDVLVPCLKAGHVGVVSVEFIAPALEGTYTSHWRLSHKGQQFGPRVWCSIIVDPFPSEESPDNIEKGMISSSKTDDLTCQQEETFLLAKEERQLGEVTEQTEGTAACIPQKAKNVASERELYIPSVDLLTAQDLLSFELLDINIVQELERVPHNTPVDVTPCMSPLPHDSPLIEKPGLGQIEEENEGAGFKALPDSMVSVKRKAENIASVEEAEEDLSGTQFVCETVIRSLTLDAAPDHNPPCRQKSLQMTFALPEGPLGNEKEEIIHIAEEEAVMEEEEDEEDEEEEDELKDEVQSQSSASSEDYIIILPECFDTSRPLGDSMYSSALSQPGLERGAEGKPGVEAGQEPAEAGERLPGGENQPQEHSISDILTTSQTLETVPLIPEVVELPPSLPRSSPCVHHHGSPGVDLPVTIPEVSSVPDQIRGEPRGSSGLVNSRQKSYDHSRHHHGSSIAGGLVKGALSVAASAYKALFAGPPVTAQPIISEDQTAALMAHLFEMGFCDRQLNLRLLKKHNYNILQVVTELLQLNNNDWYSQRY"}, "B6": {"name": "Nkd1-BirA* [murine] / DVL2 (endogenous) [human (endogenous in Flp-In-T-REx-293)] (parent)", "chain 1": "B1 chain 1", "chain 2": "MAGSSTGGGGVGETKVIYHLDEEETPYLVKIPVPAERITLGDFKSVLQRPAGAKYFFKSMDQDFGVVKEEISDDNARLPCFNGRVVSWLVSSDNPQPEMAPPVHEPRAELAPPAPPLPPLPPERTSGIGDSRPPSFHPNVSSSHENLEPETETESVVSLRRERPRRRDSSEHGAGGHRTGGPSRLERHLAGYESSSTLMTSELESTSLGDSDEEDTMSRFSSSTEQSSASRLLKRHRRRRKQRPPRLERTSSFSSVTDSTMSLNIITVTLNMEKYNFLGISIVGQSNERGDGGIYIGSIMKGGAVAADGRIEPGDMLLQVNDMNFENMSNDDAVRVLRDIVHKPGPIVLTVAKCWDPSPQAYFTLPRNEPIQPIDPAAWVSHSAALTGTFPAYPGSSSMSTITSGSSLPDGCEGRGLSVHTDMASVTKAMAAPESGLEVRDRMWLKITIPNAFLGSDVVDWLYHHVEGFPERREARKYASGLLKAGLIRHTVNKITFSEQCYYVFGDLSGGCESYLVNLSLNDNDGSSGASDQDTLAPLPGATPWPLLPTFSYQYPAPHPYSPQPPPYHELSSYTYGGGSASSQHSEGSRSSGSTRSDGGAGRTGRPEERAPESKSGSGSESEPSSRGGSLRRGGEASGTSDGGPPPSRGSTGGAPNLRAHPGLHPYGPPPGMALPYNPMMVVMMPPPPPPVPPAVQPPGAPPVRDLGSVPPELTASRQSFHMAMGNPSEFFVDVM"}}}
{"variants_of": "B1", "test": "BioID proximity labeling (mass spectrometry)", "details": "with VANGL1 [human (endogenous in Flp-In-T-REx-293)]; +Wnt3a"}
{"variant": "chain 1 G2A", "response (unweighted spectral counts)": 7}
{"variants_of": "B2", "test": "BioID proximity labeling (mass spectrometry)", "details": "with VANGL2 [human (endogenous in Flp-In-T-REx-293)]; +Wnt3a"}
{"variant": "chain 1 G2A", "response (unweighted spectral counts)": 3}
{"variants_of": "B3", "test": "BioID proximity labeling (mass spectrometry)", "details": "with DVL1 [human (endogenous in Flp-In-T-REx-293)]; +Wnt3a"}
{"variant": "chain 1 G2A", "response (unweighted spectral counts)": 127}
{"variants_of": "B4", "test": "BioID proximity labeling (mass spectrometry)", "details": "with DVL3 [human (endogenous in Flp-In-T-REx-293)]; +Wnt3a"}
{"variant": "chain 1 G2A", "response (unweighted spectral counts)": 240}
{"variants_of": "B5", "test": "BioID proximity labeling (mass spectrometry)", "details": "with NBR1 [human (endogenous in Flp-In-T-REx-293)]; +Wnt3a"}
{"variant": "chain 1 G2A", "response (unweighted spectral counts)": 24}
{"variants_of": "B6", "test": "BioID proximity labeling (mass spectrometry)", "details": "with DVL2 (endogenous) [human (endogenous in Flp-In-T-REx-293)]; +Wnt3a"}
{"variant": "chain 1 G2A", "response (unweighted spectral counts)": 303}
